The values that follow come from patent US20160053014A1.

This assay deals with human CXCR5 (human) (UniProt P32302). Kind of assay: cell-based or functional assay.
Chain of human CXCR5 (human) (P32302 whole entry): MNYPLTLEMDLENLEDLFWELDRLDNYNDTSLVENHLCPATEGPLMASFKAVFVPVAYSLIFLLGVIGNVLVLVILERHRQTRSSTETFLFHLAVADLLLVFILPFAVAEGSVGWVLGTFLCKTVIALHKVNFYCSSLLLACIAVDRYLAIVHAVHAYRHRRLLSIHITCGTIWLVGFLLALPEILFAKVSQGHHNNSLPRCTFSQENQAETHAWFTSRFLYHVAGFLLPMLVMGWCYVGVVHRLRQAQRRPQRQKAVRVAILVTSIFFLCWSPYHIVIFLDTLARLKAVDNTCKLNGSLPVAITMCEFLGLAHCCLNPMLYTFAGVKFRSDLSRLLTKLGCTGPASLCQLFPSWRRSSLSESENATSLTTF

B1: SAR113244 (antibody, from another filing, V domains shown)
VH: QVQLKESGPGLVAPSESLSITCTVSGFSLIDYGVNWIRQPPGKGLEWLGVIWGDGTTYYNPSLKSRLSISKDNSKSQVFLKVTSLTTDDTAMYYCARIVYWGQGTLVTVSA
VL: DIVMTQAAPSVAVTPGASVSISCRSSKSLLHSSGKTYLYWFLQRPGQSPQLLIYRLSSLASGVPDRFSGSGSGTAFTLRISRVEAEDVGVYYCMQHLEYPYTFGGGTKLEIKR
B1: the IC50 [nM] of mAbs in chemotaxis assay using HS-Sultan cells (25 nM CXCL13) is 4.7 nM.
